{"source": "paper PMC7427095", "about": "(2020)", "binders": {"B1": {"name": "YFP-SH2 (fusion of yellow fluorescent protein and the SH2 domain of human Abl kinase), purified (domain or fragment)", "chain": "SLEKHSWYHGPVSRNAAEYLLSSGINGSFLVRESESSPGQRSISLRYEGRVYHYRINTASDGKLYVSSESRFNTLAELVHHHSTVADGLITTLHYPAPKRNKPTVYGVSPNY"}, "B2": {"name": "YFP-SH2, purified (fusion of YFP and the SH2 domain of human Abl kinase) (domain or fragment)", "chain": "B1 chain"}}, "key": {"[1]": {"biological_target": "His6-SUMO-HA4-AsLOV2 (SS58 insertion, V416I, G528A, N538E mutant) (Avena sativa)", "experiment": "BLI; Octet RED96e; 6x-histidine tagged OptoMB variant loaded on Ni-NTA sensors, YFP-SH2 in solution at several concentrations; Buffer A (Tris 50 mM pH 8.0, NaCl 150 mM); illumination: ambient (ambient laboratory light and the instrument's internal light sufficed to trigger the lit conformation of the light-sensitive constructs); binding and unbinding curves fitted together to a mass-action model; single experiments"}, "[2]": {"biological_target": "His6-HA4-AsLOV2 (SS58 insertion, C450V mutant) (Avena sativa)", "experiment": "BLI; Octet RED96e; 6x-histidine tagged OptoMB variant loaded on Ni-NTA sensors, YFP-SH2 in solution at several concentrations; Buffer A (Tris 50 mM pH 8.0, NaCl 150 mM); illumination: ambient (ambient laboratory light and the instrument's internal light sufficed to trigger the lit conformation of the light-sensitive constructs); binding and unbinding curves fitted together to a mass-action model; single experiments"}, "[3]": {"biological_target": "His6-HA4-AsLOV2 (SS58 insertion): αSH2-OptoMB (Avena sativa)", "experiment": "BLI; Octet RED96e; 6x-histidine tagged OptoMB variant loaded on Ni-NTA sensors, YFP-SH2 in solution at several concentrations; Buffer A (Tris 50 mM pH 8.0, NaCl 150 mM); illumination: ambient (ambient laboratory light and the instrument's internal light sufficed to trigger the lit conformation of the light-sensitive constructs); binding and unbinding curves fitted together to a mass-action model; single experiments"}, "[4]": {"biological_target": "HA4-AsLOV2 (SS58 insertion, V416L mutant) (Avena sativa)", "experiment": "BLI; Octet RED96e; 6x-histidine tagged OptoMB variant loaded on Ni-NTA sensors, YFP-SH2 in solution at several concentrations; Buffer A (Tris 50 mM pH 8.0, NaCl 150 mM); illumination: ambient (ambient laboratory light and the instrument's internal light sufficed to trigger the lit conformation of the light-sensitive constructs); binding and unbinding curves fitted together to a mass-action model; single experiments"}, "[5]": {"biological_target": "His6-HA4-AsLOV2 (SS58 insertion, C450V mutant) (Avena sativa)", "experiment": "BLI; Octet RED96e; 6x-histidine tagged OptoMB variant loaded on Ni-NTA sensors, YFP-SH2 in solution at several concentrations; Buffer A (Tris 50 mM pH 8.0, NaCl 150 mM); illumination: 450 nm light (blue LED panel above the plate, lid open); binding and unbinding curves fitted together to a mass-action model; single experiments"}, "[6]": {"biological_target": "HA4-AsLOV2 (SS58 insertion, V416L mutant) (Avena sativa)", "experiment": "BLI; Octet RED96e; 6x-histidine tagged OptoMB variant loaded on Ni-NTA sensors, YFP-SH2 in solution at several concentrations; Buffer A (Tris 50 mM pH 8.0, NaCl 150 mM); illumination: 450 nm light (blue LED panel above the plate, lid open); binding and unbinding curves fitted together to a mass-action model; single experiments"}, "[7]": {"biological_target": "T1, OptoMB_(V416L), His-tagged (Avena sativa, UniProt O49003 408-543, V416L)", "experiment": "BLI; light"}, "[8]": {"biological_target": "αSH2 OptoMonobody (OptoMB), His-tagged, wild-type AsLOV2 (Avena sativa) (UniProt O49003)", "experiment": "BLI; LIGHT conformation: Octet RED96e with the lid open and a blue LED panel above the plate (for the V416I-G528A-N538E variant pre-illumination); His-tagged OptoMB variants loaded on Ni-NTA sensors, YFP-SH2 in solution; Buffer A (Tris 50 mM pH 8.0, NaCl 150 mM)"}, "[9]": {"biological_target": "T1, OptoMB_(V416L), His-tagged", "experiment": "BLI; LIGHT conformation: Octet RED96e with the lid open and a blue LED panel above the plate (for the V416I-G528A-N538E variant pre-illumination); His-tagged OptoMB variants loaded on Ni-NTA sensors, YFP-SH2 in solution; Buffer A (Tris 50 mM pH 8.0, NaCl 150 mM)"}, "[10]": {"biological_target": "T2, OptoMB_(C450V), His-tagged (Avena sativa, UniProt O49003 408-543, C450V)", "experiment": "BLI; dark"}, "[11]": {"biological_target": "T1, OptoMB_(V416L), His-tagged", "experiment": "BLI; light", "remark": "listed apart in the source"}, "[12]": {"biological_target": "T2, OptoMB_(C450V), His-tagged", "experiment": "BLI; dark", "remark": "listed apart in the source"}, "[13]": {"biological_target": "T2, OptoMB_(C450V), His-tagged", "experiment": "BLI; DARK conformation: Octet RED96e, no external light source; His-tagged OptoMB_(C450V) loaded on Ni-NTA sensors, YFP-SH2 in solution; Buffer A (Tris 50 mM pH 8.0, NaCl 150 mM)"}, "[14]": {"biological_target": "Monobody HA4 (6x-histidine tagged)", "experiment": "BLI; Octet RED96e; His-tagged HA4 loaded on Ni-NTA sensors, YFP-SH2 in solution; Buffer A (Tris 50 mM pH 8.0, NaCl 150 mM); state of illumination not given ('–')"}}, "note": "Where “and” joins values, the source holds several entries; their conditions need not be identical. Equal values may be shown once.", "data": [{"binder": "B1", "values": [{"measurement": "Kd", "setting": "[1]", "value": "> 100", "unit": "µM"}, {"measurement": "kon", "setting": "[1]", "value": "< 1000", "unit": "M⁻¹ s⁻¹"}, {"measurement": "Kd", "setting": "[2]", "value": "0.06 µM and 0.23 µM"}, {"measurement": "koff", "setting": "[2]", "value": "0.006 s⁻¹ and 0.013 s⁻¹"}, {"measurement": "kon", "setting": "[2]", "value": "110000 M⁻¹ s⁻¹ and 56000 M⁻¹ s⁻¹"}, {"measurement": "Kd", "setting": "[3]", "value": "> 100", "unit": "µM"}, {"measurement": "kon", "setting": "[3]", "value": "< 1000", "unit": "M⁻¹ s⁻¹"}, {"measurement": "Kd", "setting": "[4]", "value": 87, "unit": "µM"}, {"measurement": "koff", "setting": "[4]", "value": 0.25, "unit": "s⁻¹"}, {"measurement": "kon", "setting": "[4]", "value": 2900, "unit": "M⁻¹ s⁻¹"}, {"measurement": "Kd", "setting": "[5]", "value": 0.27, "unit": "µM"}, {"measurement": "koff", "setting": "[5]", "value": 0.013, "unit": "s⁻¹"}, {"measurement": "kon", "setting": "[5]", "value": 48000, "unit": "M⁻¹ s⁻¹"}, {"measurement": "Kd", "setting": "[6]", "value": "60 µM and 42 µM"}, {"measurement": "koff", "setting": "[6]", "value": "0.2 s⁻¹ and 0.24 s⁻¹"}, {"measurement": "kon", "setting": "[6]", "value": "3300 M⁻¹ s⁻¹ and 5800 M⁻¹ s⁻¹"}]}, {"binder": "B2", "values": [{"measurement": "Kd", "setting": "[7]", "value": 86.7, "unit": "µM"}, {"measurement": "Kd", "setting": "[8]", "value": "> 100", "unit": "µM"}, {"measurement": "kon", "setting": "[8]", "value": "< 1000", "unit": "M⁻¹ s⁻¹"}, {"measurement": "Kd", "setting": "[9]", "value": 63, "unit": "µM"}, {"measurement": "koff", "setting": "[9]", "value": 0.23, "unit": "s⁻¹"}, {"measurement": "kon", "setting": "[9]", "value": 4000, "unit": "M⁻¹ s⁻¹"}, {"measurement": "koff", "setting": "[10]", "value": 0.00599, "unit": "s⁻¹"}, {"measurement": "koff", "setting": "[11]", "value": 0.254, "unit": "s⁻¹"}, {"measurement": "Kd", "setting": "[12]", "value": 0.0569, "unit": "µM"}, {"measurement": "Kd", "setting": "[13]", "value": 0.19, "unit": "µM"}, {"measurement": "koff", "setting": "[13]", "value": 0.01, "unit": "s⁻¹"}, {"measurement": "kon", "setting": "[13]", "value": 71000, "unit": "M⁻¹ s⁻¹"}, {"measurement": "Kd", "setting": "[14]", "value": 0.23, "unit": "µM"}, {"measurement": "koff", "setting": "[14]", "value": 0.0145, "unit": "s⁻¹"}, {"measurement": "kon", "setting": "[14]", "value": 63100, "unit": "M⁻¹ s⁻¹"}]}]}
